Patent EP4624493A1 (Jiangsu Hengrui Pharmaceuticals Co., Ltd., dated 2025)

Biological target: T1, human HGFR protein extracellular domain with the His tag (human, UniProt P08581 25-932)
T1 construct: also called HGFR-His
Test: SPR Biacore T200, comparison of KD values

T1 sequence (P08581 other isoform, or with tags, fused parts or gaps): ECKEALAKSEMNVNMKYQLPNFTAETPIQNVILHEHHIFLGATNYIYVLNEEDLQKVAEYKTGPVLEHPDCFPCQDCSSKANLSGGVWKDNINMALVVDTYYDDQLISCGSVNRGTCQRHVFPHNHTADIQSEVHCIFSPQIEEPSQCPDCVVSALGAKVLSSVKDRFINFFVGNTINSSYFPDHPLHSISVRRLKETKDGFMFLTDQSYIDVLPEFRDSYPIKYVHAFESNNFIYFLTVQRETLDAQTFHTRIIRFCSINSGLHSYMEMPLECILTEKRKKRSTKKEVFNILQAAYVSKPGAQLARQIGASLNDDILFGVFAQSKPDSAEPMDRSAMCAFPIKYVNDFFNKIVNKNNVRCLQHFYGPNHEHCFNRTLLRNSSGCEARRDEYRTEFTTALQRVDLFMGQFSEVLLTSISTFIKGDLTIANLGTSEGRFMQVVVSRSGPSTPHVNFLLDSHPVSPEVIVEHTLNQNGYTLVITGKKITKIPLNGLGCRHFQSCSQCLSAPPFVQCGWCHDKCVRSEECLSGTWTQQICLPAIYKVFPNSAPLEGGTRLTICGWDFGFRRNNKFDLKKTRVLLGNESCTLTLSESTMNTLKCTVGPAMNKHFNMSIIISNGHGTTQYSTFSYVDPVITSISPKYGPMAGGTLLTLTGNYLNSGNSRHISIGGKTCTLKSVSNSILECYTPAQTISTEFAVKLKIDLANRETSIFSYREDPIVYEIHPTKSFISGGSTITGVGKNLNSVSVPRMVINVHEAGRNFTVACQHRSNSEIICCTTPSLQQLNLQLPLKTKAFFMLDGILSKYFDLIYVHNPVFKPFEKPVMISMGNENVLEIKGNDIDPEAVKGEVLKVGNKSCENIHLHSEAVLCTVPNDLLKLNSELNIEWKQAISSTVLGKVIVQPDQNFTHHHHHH

B1: Ab10.1, mutant antibody of Ab10 (anti-HGFR) (antibody, V domains shown)
VH: QVQLVESGGGVVQPGRSLRLSCAASGFSLSDYGVHWVRQAPGKGLEWLAVIWSGGSTNYADAFVSRLTISKDNSKNTVYLQMNSLRAEDTAVYYCARNHDNPYIYAMDYWGQGTTVTVSS
VL: DIVLTQSPDSLAVSLGERATINCRADKSVSTSTYNYLHWYQQKPGQPPKLLIYRGSFLATGVPDRFSGSGSGTDFTLTISSLQAEDVAVYYCQHSRDLPPTFGQGTKLEIK
  fold affinity against the parent antibody Ab10: ≥ 4 fold
